Experimental data taken from patent US20230416345A1, “NEW TYPE II COLLAGEN BINDING PROTEINS” (Navigo Proteins GmbH, priority 2020, published 2023).

Assays:
[1] = biological target: T1, Type III collagen (Homo sapiens, UniProt P02461); test: SPR specificity vs Type III collagen; format: binding
T1 sequence (P02461 154-1221 limits assumed): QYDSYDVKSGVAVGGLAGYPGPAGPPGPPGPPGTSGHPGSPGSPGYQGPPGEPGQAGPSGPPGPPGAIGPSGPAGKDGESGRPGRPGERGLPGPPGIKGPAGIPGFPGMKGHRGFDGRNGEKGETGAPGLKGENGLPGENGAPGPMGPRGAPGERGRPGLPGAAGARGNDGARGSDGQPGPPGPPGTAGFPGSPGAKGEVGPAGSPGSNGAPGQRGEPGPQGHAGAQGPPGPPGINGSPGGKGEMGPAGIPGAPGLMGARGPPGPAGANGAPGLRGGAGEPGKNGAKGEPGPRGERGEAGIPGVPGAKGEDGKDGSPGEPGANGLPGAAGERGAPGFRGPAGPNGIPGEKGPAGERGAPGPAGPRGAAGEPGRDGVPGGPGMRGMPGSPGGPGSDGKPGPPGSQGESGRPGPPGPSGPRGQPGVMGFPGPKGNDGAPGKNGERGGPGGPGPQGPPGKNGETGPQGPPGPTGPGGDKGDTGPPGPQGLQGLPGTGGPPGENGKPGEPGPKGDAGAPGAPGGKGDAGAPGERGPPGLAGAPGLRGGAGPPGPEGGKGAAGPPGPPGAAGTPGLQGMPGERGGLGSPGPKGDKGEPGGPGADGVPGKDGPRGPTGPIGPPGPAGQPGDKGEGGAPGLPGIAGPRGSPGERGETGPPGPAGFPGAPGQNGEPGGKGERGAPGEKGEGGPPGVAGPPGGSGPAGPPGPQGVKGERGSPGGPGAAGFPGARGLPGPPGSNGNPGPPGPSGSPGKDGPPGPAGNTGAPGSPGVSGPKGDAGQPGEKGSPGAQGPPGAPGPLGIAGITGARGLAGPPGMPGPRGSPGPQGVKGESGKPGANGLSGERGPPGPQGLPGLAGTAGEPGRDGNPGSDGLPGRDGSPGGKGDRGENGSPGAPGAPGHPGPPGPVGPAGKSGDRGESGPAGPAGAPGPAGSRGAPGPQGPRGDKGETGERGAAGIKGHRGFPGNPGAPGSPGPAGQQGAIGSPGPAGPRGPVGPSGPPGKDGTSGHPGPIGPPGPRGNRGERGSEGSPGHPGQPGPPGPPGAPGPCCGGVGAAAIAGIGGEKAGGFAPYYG
Method: (§1) The purified proteins were immobilized on a CM-5 sensor chip (GE Healthcare) using NHS/EDC after PDEA activation resulting in 110-140 RU with a Biacore 3000 system (GE Healthcare). The chip was equilibrated with SPR running buffer (PBS 0.05% Tween pH 7.3). Upon binding, target analyte was accumulated on the surface increasing the refractive index. This change in the refractive index was measured in real time and plotted as response or resonance units versus time. The analytes were applied to the chip in serial dilutions with a flow rate of 30 μl/min. The association was performed for 120 seconds and the dissociation for 120 seconds. After each run, the chip surface was regenerated with 30 μl regeneration buffer (10 mM glycine pH 2.0) and equilibrated with running buffer.
(§2) Binding studies were carried out by the use of the BIAcore 3000 (GE Healthcare); data evaluation was operated via the BIAevaluation 3.0 software, provided by the manufacturer, using the Langmuir 1:1 model (RI=0). Evaluated dissociation constants (KD) were standardized against the immobilized protein and indicated. Shown is the change in refractive index measured in real time and plotted as response or resonance unit [RU] versus time [sec].

[2] = biological target: T2, porcine collagen type II (p Col II) (Sus scrofa, UniProt A0A287A2Q7); test: KD-determination by ELISA vs porcine collagen type II; format: binding
T2 construct: porcine collagen type II (p Col II, prepared from porcine eyes); from tissue; host or cells: porcine eyes
Method: (§3) High binding plates (Greiner, 781061) were immobilized with 2.5 μg/ml recombinant human collagen type II (h Col II, Chondrex, CHX-20051), rabbit collagen type II (rbCol II, prepared from rabbit eyes), porcine collagen type II (p Col II, prepared from porcine eyes), human collagen type I, (h Col I, Sigma, C5483-1MG), human collagen type V (h Col V, Abcam, ab7537), human collagen type III (h Col Ill, Abcam, ab7535) and 67B89 (domain of fibronectin, produced in E. coli) respectively over night at 4° C. ELISA-plates were washed 3 times with PBST (PBS+ 0.1% Tween) and blocked with 3% BSA/0.5% Tween/PBS 2 h at RT. After washing with PBST, dilution series of 1.1 μM to 7×10^−4 nM of dimers (CID 211999, CID 212000), dilution series of 100 nM to 7×10^−6 nM of tetramers (CID 212001 and CID 212704) and dilution series of 10 μM to 2 nM of dimer (CID 212705) were incubated on ELISA-plates 1 h at rt. Plates were washed with PBST and incubated with biotinylated anti-StrepTag-ab (Antikörper-online, ABIN1573895) with a dilution of 1:10.000 for 1 h at rt. The binding was visualized with a-rabbit-IgG-HRP (Sigma, A9169) with a dilution of 1:10.000 and as substrate TMB Plus von KEM EN TEC Diagnostic, Kat-Nr. 4395.

[3] = biological target: Type V collagen (Homo sapiens, UniProt P05997+P20908); test: SPR specificity vs Type V collagen; format: binding
Type V collagen, sequence (P20908 38-1605 limits assumed): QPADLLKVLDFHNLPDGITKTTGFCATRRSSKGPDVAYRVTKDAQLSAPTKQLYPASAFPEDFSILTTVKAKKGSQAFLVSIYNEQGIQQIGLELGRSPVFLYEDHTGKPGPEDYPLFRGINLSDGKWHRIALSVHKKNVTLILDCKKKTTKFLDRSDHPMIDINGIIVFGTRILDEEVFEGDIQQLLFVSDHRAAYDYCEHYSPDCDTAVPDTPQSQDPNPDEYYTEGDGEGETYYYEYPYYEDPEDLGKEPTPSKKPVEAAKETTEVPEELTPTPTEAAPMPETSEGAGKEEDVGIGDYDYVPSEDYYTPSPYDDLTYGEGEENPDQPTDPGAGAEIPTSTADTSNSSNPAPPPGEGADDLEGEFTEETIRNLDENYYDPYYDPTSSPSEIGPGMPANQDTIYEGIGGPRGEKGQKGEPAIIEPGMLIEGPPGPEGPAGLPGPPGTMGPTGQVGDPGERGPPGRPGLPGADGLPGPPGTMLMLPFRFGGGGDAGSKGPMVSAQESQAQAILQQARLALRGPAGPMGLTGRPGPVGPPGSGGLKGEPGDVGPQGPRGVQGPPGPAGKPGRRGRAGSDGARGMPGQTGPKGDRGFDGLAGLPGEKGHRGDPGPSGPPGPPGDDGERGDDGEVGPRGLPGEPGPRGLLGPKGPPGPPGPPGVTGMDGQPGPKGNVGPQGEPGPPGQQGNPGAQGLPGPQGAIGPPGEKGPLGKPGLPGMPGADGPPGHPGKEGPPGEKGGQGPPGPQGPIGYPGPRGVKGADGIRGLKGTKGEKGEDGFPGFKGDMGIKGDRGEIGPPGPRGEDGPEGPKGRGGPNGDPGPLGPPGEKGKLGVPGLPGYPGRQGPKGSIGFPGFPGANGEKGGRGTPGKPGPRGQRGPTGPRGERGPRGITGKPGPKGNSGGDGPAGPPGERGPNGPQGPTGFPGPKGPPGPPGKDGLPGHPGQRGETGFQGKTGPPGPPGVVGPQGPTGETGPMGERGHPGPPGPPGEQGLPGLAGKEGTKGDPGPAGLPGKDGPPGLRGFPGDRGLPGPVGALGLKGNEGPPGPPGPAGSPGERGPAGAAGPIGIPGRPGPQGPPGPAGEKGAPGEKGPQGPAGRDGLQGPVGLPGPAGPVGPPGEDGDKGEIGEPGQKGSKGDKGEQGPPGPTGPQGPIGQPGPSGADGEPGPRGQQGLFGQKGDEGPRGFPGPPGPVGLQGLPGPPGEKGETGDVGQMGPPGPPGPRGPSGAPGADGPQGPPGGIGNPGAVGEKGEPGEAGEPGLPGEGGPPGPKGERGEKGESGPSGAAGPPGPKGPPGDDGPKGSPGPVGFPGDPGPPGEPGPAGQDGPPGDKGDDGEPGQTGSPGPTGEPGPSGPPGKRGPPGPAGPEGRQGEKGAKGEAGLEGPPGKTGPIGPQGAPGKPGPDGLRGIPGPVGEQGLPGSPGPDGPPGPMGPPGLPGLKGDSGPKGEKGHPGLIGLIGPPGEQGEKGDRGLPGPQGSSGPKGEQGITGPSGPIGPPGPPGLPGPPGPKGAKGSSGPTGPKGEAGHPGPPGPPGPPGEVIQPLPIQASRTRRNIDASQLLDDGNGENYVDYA
Type V collagen, sequence (P05997 27-1229 limits assumed): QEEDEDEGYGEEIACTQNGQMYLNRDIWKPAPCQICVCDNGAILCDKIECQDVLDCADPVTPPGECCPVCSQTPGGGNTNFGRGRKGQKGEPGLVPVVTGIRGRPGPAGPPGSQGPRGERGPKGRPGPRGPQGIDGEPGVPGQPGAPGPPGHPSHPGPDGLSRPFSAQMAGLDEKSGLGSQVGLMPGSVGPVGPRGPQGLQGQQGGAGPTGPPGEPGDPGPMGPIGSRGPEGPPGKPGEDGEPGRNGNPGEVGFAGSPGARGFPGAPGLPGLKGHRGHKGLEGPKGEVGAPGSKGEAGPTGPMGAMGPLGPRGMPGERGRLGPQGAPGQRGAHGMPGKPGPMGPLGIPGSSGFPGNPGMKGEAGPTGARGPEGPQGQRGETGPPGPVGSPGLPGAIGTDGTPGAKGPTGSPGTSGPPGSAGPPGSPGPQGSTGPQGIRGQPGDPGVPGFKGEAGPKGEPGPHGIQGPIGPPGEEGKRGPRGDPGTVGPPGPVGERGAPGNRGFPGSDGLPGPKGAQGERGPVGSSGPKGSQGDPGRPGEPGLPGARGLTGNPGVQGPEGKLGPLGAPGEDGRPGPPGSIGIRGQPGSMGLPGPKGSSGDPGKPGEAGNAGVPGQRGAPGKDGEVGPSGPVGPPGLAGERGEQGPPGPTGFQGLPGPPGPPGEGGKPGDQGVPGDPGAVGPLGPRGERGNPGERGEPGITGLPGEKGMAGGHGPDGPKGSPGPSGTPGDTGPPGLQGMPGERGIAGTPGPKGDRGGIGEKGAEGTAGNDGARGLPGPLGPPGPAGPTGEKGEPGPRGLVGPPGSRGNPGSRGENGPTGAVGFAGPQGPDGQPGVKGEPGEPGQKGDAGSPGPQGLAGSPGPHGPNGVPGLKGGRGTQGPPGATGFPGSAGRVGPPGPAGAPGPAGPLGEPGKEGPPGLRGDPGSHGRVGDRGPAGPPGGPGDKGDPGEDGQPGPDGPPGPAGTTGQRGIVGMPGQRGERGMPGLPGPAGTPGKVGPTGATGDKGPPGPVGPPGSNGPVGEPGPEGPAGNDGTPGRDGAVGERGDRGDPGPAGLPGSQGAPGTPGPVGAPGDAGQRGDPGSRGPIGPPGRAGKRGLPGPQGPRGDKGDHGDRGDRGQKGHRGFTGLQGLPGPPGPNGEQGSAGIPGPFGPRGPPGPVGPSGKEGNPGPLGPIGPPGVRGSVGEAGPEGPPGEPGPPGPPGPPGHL
Method: as §1, §2

[4] = biological target: T3, recombinant human collagen type II (h Col II) (Homo sapiens, UniProt P02458); test: KD-determination by ELISA vs human collagen type II; format: binding
T3 construct: purchased Chondrex CHX-20051
T3 sequence (P02458 182-1241): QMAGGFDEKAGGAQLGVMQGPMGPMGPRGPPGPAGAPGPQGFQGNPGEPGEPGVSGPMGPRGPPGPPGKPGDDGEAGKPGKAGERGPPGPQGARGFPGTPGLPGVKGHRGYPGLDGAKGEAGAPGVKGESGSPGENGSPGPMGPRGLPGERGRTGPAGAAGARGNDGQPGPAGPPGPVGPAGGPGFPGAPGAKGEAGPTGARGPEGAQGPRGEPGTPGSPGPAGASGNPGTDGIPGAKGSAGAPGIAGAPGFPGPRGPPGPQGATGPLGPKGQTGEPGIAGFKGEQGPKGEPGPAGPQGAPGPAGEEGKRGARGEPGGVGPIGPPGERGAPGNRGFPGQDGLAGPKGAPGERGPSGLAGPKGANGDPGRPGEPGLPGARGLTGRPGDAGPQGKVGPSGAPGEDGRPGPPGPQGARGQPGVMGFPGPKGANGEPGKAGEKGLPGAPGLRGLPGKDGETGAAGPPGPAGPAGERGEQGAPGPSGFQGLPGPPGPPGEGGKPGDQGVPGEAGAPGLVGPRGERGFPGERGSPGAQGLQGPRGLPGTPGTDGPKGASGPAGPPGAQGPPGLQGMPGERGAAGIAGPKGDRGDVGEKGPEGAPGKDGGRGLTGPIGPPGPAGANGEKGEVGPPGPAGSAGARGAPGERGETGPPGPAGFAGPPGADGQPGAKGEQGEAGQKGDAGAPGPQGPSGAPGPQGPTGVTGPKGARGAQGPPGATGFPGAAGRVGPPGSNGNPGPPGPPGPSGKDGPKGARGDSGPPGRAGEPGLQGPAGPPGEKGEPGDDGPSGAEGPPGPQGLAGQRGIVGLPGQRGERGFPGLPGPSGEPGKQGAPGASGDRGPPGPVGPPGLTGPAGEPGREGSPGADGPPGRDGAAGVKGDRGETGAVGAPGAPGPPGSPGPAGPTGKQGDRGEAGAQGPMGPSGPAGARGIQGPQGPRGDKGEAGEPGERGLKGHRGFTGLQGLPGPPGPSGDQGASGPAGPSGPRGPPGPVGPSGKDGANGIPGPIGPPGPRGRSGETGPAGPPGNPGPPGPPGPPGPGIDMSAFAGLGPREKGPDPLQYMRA
Method: as §3

[5] = Soluble expression in Escherichia coli BL21(DE3); format: physicochemical; conditions: expression in E. coli BL21(DE3)
Method: Variants with affinity tag were expressed in Escherichia coli BL21(DE3) using a low copy plasmid system under regulation of a T7 promoter. Proteins were produced in soluble form after induction by lactose included in the medium (autoinduction medium). BL21 (DE3) competent cells were transformed with the expression plasmid, spread onto selective agar plates (kanamycin) and incubated overnight at 37° C. Precultures were inoculated from single colony in 3 ml 2×YT medium supplemented with 50 μg/ml kanamycin and cultured for 6 hours at 37° C. at 200 rpm in a conventional orbital shaker in culture tubes. […] Cultures were transferred to an orbital shaker and incubated at 30° C. and 200 rpm. Recombinant protein expression was induced by metabolizing glucose and subsequently allowing lactose to enter the cells. Cells were grown overnight for approx. 17 hours to reach a final OD600 of about 2-4. Before the harvest, the OD600 was measured, samples adjusted to 0.6/OD600 were withdrawn, pelleted and frozen at −20° C. To collect biomass cells were centrifuged at 12000×g for 15 min at 22° C. Pellets were weighed (wet weight). Cells were stored at −20° C. before processing.
(§4) Proteins with affinity tag were purified by affinity chromatography and size exclusion. After affinity chromatography purification using Strep-Tactin Superflow high capacity cartridges (IBA Lifesciences) a size exclusion chromatography (SEC) was performed using an Äkta system and a Superdex™ 200 HiLoad 16/600 column (Cytiva). Fused variants with Aflibercept were purified via MabSelect SuRe (Cytiva) affinity chromatography followed by a size exclusion chromatography (SEC) using an Äkta system and a Superdex™ 200 HiLoad 16/600 column (Cytiva). All chromatography processing steps were carried out on AKTA systems using matrices from Cytiva. Homogenous species of all purified ligands were obtained; no aggregation was detected. Following SOS-PAGE analysis positive fractions were pooled and their protein concentrations were measured. Further analysis included SOS-PAGE, SE-HPLC and RP-HPLC. Protein concentrations were determined by absorbance measurement at 280 nm using the molar absorbent coefficient. Reversed phase chromatography (RP-HPLC) was performed using a Dionex HPLC system and a PLRP-S (5 μm, 300 Å) column (Agilent). Analytic size exclusion chromatography (SE-HPLC) was performed using a Dionex HPLC system and a Superdex200 increase 5/150 GL (Cytiva). Binding of Collagen II was evaluated by SPR measurements using a Biacore 3000 system. Purified Collagen II was obtained from Chondrex.inc and VEGF-165 was obtained from Millipore. Targets were immobilized on a CM5-Sensor via NHS/EDC chemistry (immobilization level ˜1000 RU). Binding molecules were injected at different concentration and affinity was calculated by langmuir 1:1 binding model.

[6] = biological target: T4, hCol2 (human Type II collagen) (Homo sapiens, UniProt P02458); test: Binding analysis by SPR (Biacore 3000) vs human type II collagen
T4 construct: purchased Chondrex
T4 sequence (P02458 182-1241): as above
Method: as §4, §1, §2

[7] = biological target: Type I collagen (Homo sapiens, UniProt P02452+P08123); test: SPR specificity vs Type I collagen; format: binding
Method: as §1, §2

B1: CID 211519: homodimer of SEQ ID NO: 11 (protein)
chain: IAAKFDEAQQAAFYEILHLPNLTEQQRNYFIQWLRDDPSVSPTVLGTAQQLNDSQAPKIAAKFDEAQQAAFYEILHLPNLTEQQRNYFIQWLRDDPSVSPTVLGTAQQLNDSQAPK
modifications: Col2 binding protein (dimer) 211519
[1]
  Binding to Type III collagen (SPR): no binding
[2]
  specific binding vs porcine type II collagen (ELISA): 0.7 µM
[3]
  Binding to Type V collagen (SPR): no binding
[4]
  binding affinity (KD) to human type II collagen (ELISA): 700 nM
[5]
  Solubility Soluble expression: 95%
[6]; FIG. 3, FIG. 4A
  Binding to type II collagen via SPR: binding to Type II collagen with transient binding signal
[6]; dimers or tetramers, Langmuir 1:1 model
  Affinity [SPR] vs hCol2: 784 nM
[6]; multi-cycle Biacore measurement, FIG. 4B, read-out: KD for Type II collagen, equilibrium fit of amplitudes
  Kd: 780 nM
[7]
  Binding to Type I collagen (SPR): no binding
